Laboratory results reported in article doi:10.1101/212233 (bioRxiv, 2017).

B1: DARP14 subunit A (cage subunit A fused to the DARPin by a continuous alpha helix) (other)
chain: MRITTKVGDKGSTRLFGGEEVWKDSPIIEANGTLDELTSFIGEAKHYVDEEMKGILEEIQNDIYKIMGEIGSKGKIEGISEERIAWLLKLILRYMEMVNLKSFVLPGGTLESAKLDVCRTIARRALRKVLTVTREFGIGAEAAAYLLALSDLLFLLARVIEIELGKKLLEAARAGQDDEVRILMANGADVNAHDDQGSTPLHLAAWIGHPEIVEVLLKHGADVNARDTDGWTPLHLAADNGHLEIVEVLLKYGADVNAQDAYGLTPLHLAADRGHLEIVEVLLKHGADVNAQDKFGKTAFDISIDNGNEDLAEILQKLN
B2: DARP14 subunit B (unfused cage subunit B) (other)
chain: MPHLVIEATANLRLETSPGELLEQANKALFASGQFGEADIKSRFVTLEAYRQGTAAVERAYLHACLSILDGRDIATRTLLGASLCAVLAEAVAGGGEEGVQVSVEVREMERLSYAKRVVARQR

Target: the molecule itself
Test: cryo-EM structure

Protein | binding result
B1 | binds
B2 | binds
